From a protein production outcome set (Wang et al. 2014)

Assay: label from the status in PepcDB records

Sequence	protein production
MSYFYKHCLKFSLVGLLGLLSVQLDARSFVDGDLDIQKFSYEDSLLKKGDPNGVHKVQVRDYKGKMQEAEIHSEIRIALKPGVKKEVKKGKIYSAQINDGMCYAFRMLQTGDNTTGLDSKEFPKQSREKKGRVITLIGKGEVPYLILETDCQVGDIAKISLVGNFDGTGFLTEYKFKDAKPIY	failed
MSYGLIIVLMIILGIGLWHTKKYHRAVVNQVAHVWITKNAFEHTALGMAIVSPDCRFLKVNRAYGEITGYTRPELLKMAVKELTHPEDQEKDTPYLQEVFAGNIHSFTTVKRYIHKNGSTIWVRSTISAVRTERGNLKYFVAQIQDMTIAKNAEDELRKSRDNAEVLARTDYLTKTLNRRAFIERLQEELERTKRTQEGFAMILVDIDYFKKVNDQFGHLAGDYVLQKFADCLSNNVRPYDFIGRYGGEEFIICLPDTDVEQAALVAERMRESVEALEVDYLHAQIKVTGSFGVAVYDSHSSDTLDELIEKADGAMYVAKNHKNTVYQWVS	failed
MSYLDNVRVFVRVVELGTLSAAGRDQRVTPAVASNRIKELERHMGVRLFNRTTRKLTPTEHGRVFYEGAVKILEAVNEAESAIADLSRNPKGALKITAPLGIGRRLIAPGIPEFHDRYPDIEVRLRLSDHNVDILAEGVDIAFKLGILEDSNLRMRGIMNCDRVLCGSPRYFERRGIPSSPDDLLSHSHDCLLLRYPGSKEYYWTLQTPDGVRKFEVGGPYDSDDGDVLTQWALDGRGIVNKPLFEVKQHIDEGLLVPVLEETPPLGAQLAAIYPHKRFQDPKVRLMIDFMAERCQRLIGKMLAESAEVQERSSA	failed
MSYLLRREEVVDVAGLQAMLEETPGKAAQAILAAAGQGVVEAQLLLGQILLDGRGIQQDATVARRWFGIAAQGGSAMAHNMLGRCLEHGWGGEVNLVQAAVHYARAADSGLDWGLYNLGNLLATGRGVPANQVQALMCYEKAAQLGHAKSMNLYGRYLEQGIATAPSPARAVRWYRRSAEAGDFRGMFSLALVLVERGQLAEAGQWLEQARVAGNMNFLRAALVTLQDAGPVLMAFAARYAEEIDRREEAGTGEHT	failed
MSYSWKKILIKPESTVVDALRVIDNEALRIALVVNDEQQLLGVVTDGDIRRGLLNNLPLETPVVDIMSRSPITASVNTAKEQLVKLMESKSILAVPLMEENKVVGLETLHHLFEEKTYHNPVFIMAGGFGTRLRPLTDTCPKPMLKIGNKPILETVIRSFIKAGFVNFYISTHYMPEQIQNHFGDGSELGVKISYVHEDSPLGTGGALGLLPDDLPQDLPLIMMNGDVLTKVDFERLLDFHTENQADATMCVREYDYQIPYGVINGKGNKITSMVEKPIQRFFVNAGIYVVSPSVIQSVPKNHHIDMPTLLEQHMNERDNILMFPIHEYWLDIGRMDDFNRAQADIHTLGLDLEHHHHHH	failed
MTAAENIQEQLYPAPIKTVEEGSPAARAGVRPGDVLLRVNGQPVTDVLAYRHQLERGVVTLEVARPHEAPRVMTGVAGTAQDHHRLMLPQPPSLDETLTFTVEWEDPGLDFEEVLFDGIKKCANKCDFCYVHQMPRGFRKSLYIMDDDYRLSFLYGSFVTLTNLTEGDINRILDENLSPLYVSVHTANQDLRQDMMKWWKLKVKDPQAVQIREMIERLESIDLYTQIVLVPERNDRENLDETVEYLSSRPNVISAAVVPIGLTAHRTNLPDVRTFTPEEAQDTLRRLNVWRRKFLAERGTRFIFPSDELYLLAGEPLPTEEEYEGFPMLENGVGMIRDFLTEALPPLPAALPEPRKVILGTGLLFADSLARAIEPLRQIEGLDIEVRAIENKTFGKVTTVAGLLTGRCFRHAVQPGEADLLIVPPTTLRYGTELMIDDTSLGELRRELKMDVRAGGATLGELARVVLEGAQSSGHQFGMSAHAVKDSGRDDVAPSASRAQGGAAPEESLEEDVAESGMHGRGQA	failed
MTAARSAPSPAGAPRPGLRERKKTRTREAIRAATYGLIRQQGYEATTVEQIAERAEVSPSTVLRYFPTREDIVLTDEYDPVMAAELAARPAGEPWSDSLRHVLRKALGLGAGEEAELIRLRTRLLAEVPAVRARMLENMSDTGRMLARAIADRTGLDPDGLEVRIVSMSLVGGLMEVSRYWAEHDHEESLAELVDRALDALENGLPALRESDRESDREGDRGGHREDRREGPRKD	not failed
MTAAVARALTLWGLDGASYELAAQRENEVWKVSDGTRHYALRFHRPAYRSEAELTSELLWVEMLGQAGMQVPQPVRQPDGAVLGRIEGRHVSLLDWLGGRPLGKMGQLAPDLDAEAVGRMIGAQMARMHDLSDRWTPPAGFQRPDWRRSGLLGADPLWGRFWEHPDLDPAQRQLMIATRERALACFEDFAPGADQGLIHADLVVENVLVDHDRVAFIDFDDGAWGYRDFDLATVLVKFIGQPDYDRLRAGLCAGYDARRRVEPGTLDFMLLLRALTYPGWIMSRLDEPGGRQRSARMLDTALRLARDFMEERQR	failed
MTAFRCLITGLTWLAKPGIRRYVWIPLAVNLVLYGLGLWLGIRYFSAFLNWMLPGWLDFLRWLLWPVFAVGFFTVMYFTFSVLANIIGSPFYGVLAERTAELATGRRIRPAGVAGEVGMWSALRSEFRRLAYLGLRIVPLAALFLVPVVNLVAPVLWMLFNAWFMALEYTAYPLEARGYDFDHQRSLLGRFRLGAATFGGTVLLAQTIPLLNVLAAPAAVIGATLYLLELPVEE	failed
MTAHPPRPELQIDIVSDVVCPWCIVGFRQLDQALAATGVLARLRWHPFELNPQMGPEGQNLREHIMEKYGSTPEQSAEARARLTAIGAELGFTFNFTDDSRIVNTFAAHQLLDWAEGQGRQHPLKQALFAAYFTDGRDVSDLSVLLDAVEAAGLDREAAQTALTSGAHQAPVREKQKFWAQHGISGVPSMVFGGKYLLTGAQGADTYAQVIQRCLAEA	not failed
MTAIDGQGKDQVIFVTKEEHETPSTVKQEEEDTNEDPKGKGLILPTGEINWDCPCLGGMASGVCGEQFKSAFTCFHFSQEEVKGSDCLEQFISMQECFHQHPELFPQDNNDLQTADPDQEHSSSISDFTTNKESDSLPTETDEIPTQLPVVS	not failed
MTAKPTIAFSHLGCEKNRIDTEHMIGLLAEAGYGIDANEALADVVVVNTCSFIQAAREESVRTLVELAESGKKIVIAGCLAQHFQDQLLAELPEAIALVGTGDYHRIVDVLQRTESGERVNAISQEPSFIADENLPRYRTTTSAVAYLRVAEGCDYRCAFCIIPHLRGKQRSRSIESIVAEAKQLAAEGVQELVLISQITTNYGLDRYGKPMLAELLRQLGQVDVPWIRIHYAYPTGLTPEVIAAIRETHNVLPYLDLPLQHSHPEILKAMNRPWQGNVNDRIIEKLKEALPDAVLRTTFIAGFPGETEEHFRHLQQFIQRHEFDHVGVFAFSPEEGTAAIDLPNPVPDDVKEARRDALMATQQPIAERRNRAQIGRLVDVLIEQEHPSTGLKIGRSARFAPEVDGVVYVQGDAALGQLVTVRITDADIYDLHGEVASAADLFQASRQPSLA	failed
MTAPAPQTKNAAWGWVLLAGLFEVGFTYALKMSQHDGKYLGLFLLCAIVSFECLAQALKTLPVGLAYAVWTGIGSVGTILVGLVLFGDSLSALRLGLLTVLIGSIAGLKIVDR	failed
MTAPEPSRDAKRLVRIDGVTKRFGDAPPALDAVSGAIGGGAITGLVGPDGAGKTTLIRLMTGLMLPDTGTMNVLGFDTRKNAAGIQAAIGYMPQRFGLYEDLSVQENLDLYADLRGLPKSERAGAFDELLTFTDLKRFTTRLAGKLSGGMKQKLGLACALLKKPRLLLLDEPGVGVDPISRRDLWKMVENLTKEGIGVVWSTAYLDEAEACDHVLLLNQGKLLFSGKPDEMTERVSDRVFRVSDVTGRRRQVLAELLQADGVIDGVIQGEAIRLVAANGKTPDIGKAGDGALLSPAPPRFEDAFVDMLGGGPGGRSRLAEAQEPLKAEGDRPVIEAKGLTKRFGDFTAADDISFDIRRGEIFGLLGPNGAGKSTTFKMLCGLLKPTGGEGRVAGFDLRRDAAEARNQLGYMAQKFSLYGDLTVMQNLEFFAGVYGLRGQRRHERIELMTEIFDFGRHAREPAKDLPLGLKQRLALACAVMHEPRALFLDEPTSGVDPITRREFWTHINGLVEKGVTVLVTTHFMDEAEYCDRISLIYRGRSIALGSPDELKARVATKNGPDPTMEDAFIALVQQSEAEDAA	failed
MTAPGSVPLTVIGGFWGAGKTTLLNYLLKVQHSERVLVMVNDFGSINIDAELLDQGRHDRPGVVRLQNGCVCCSIGGDLMQAFLQVMSMPDRPDRIIVEASGVADPTRIAQIGRVSGGLSDEGVITLVDASAVRALAADKYVGDIVRQQILSADIVLLNKLDLSSDAEIVETRAWLRDLAPRTRVVSCIHGEVDAVSVLGIGAGKVAPDTAGGPVDVPVPDLRRASTRHADTFHSSTLATEHRFDRRRIEYALDALPQTVLRGKGFVELEGEATPALLQLCGSRWTLDPVSTPAPPAGTHLVFIATGGRGVPRFDAPSHFEQALASRDAASADTSNLEHHHHHH	failed
MTAQKMSAQEIIAFIGNAEKKTNVKVTFEGALAAALPENVVKLGNVLFGDWKDIEPLLANLTENKDYVVEQDGRNSAVPLLDK	not failed
MTARYIAIDWGSTNLRAWLYQGEECLESRQSEAGVTRLNGRSPAAVLAEITQHWRDGATPVVMAGMVGSNVGWKIAPYLPLPAAFSDIGQQLTAVGDNIWIIPGLCVSRDDNHNVMRGEETQLLGARALAPSSVYVMPGTHCKWVLADRRQIHDFRTVLTGELHHLLLQLSLVGAGLPPQETSAAAFAAGLQRGINNPAVLPQLFEVRASHVLGALPREQVSEFLSGLLIGAEVATLSDTFAGQQAISLVAGSSLTSRYQQAFAAIGREVSAVAGDTAFQTGIRSIAYAVAN	not failed
MTASTALTVAIWIGVMLIGGIGSVLRFLVDRSVARRLARTFPYGTLTVNITGAALLGFLAGLALPKDAALLAGTGFVGAYTTFSTWMLETQRLGEDRQMVSALANIVVSVVLGLAAALLGQWIAQI	failed
MTATAQQLEYLKNSIKSIQDYPKPGILFRDVTSLLEDPKAYALSIDLLVERYKNAGITKVVGTEARGFLFGAPVALGLGVGFVPVRKPGKLPRETISETYDLEYGTDQLEIHVDAIKPGDKVLVVDDLLATGGTIEATVKLIRRLGGEVADAAFIINLFDLGGEQRLEKQGITSYSLVPFPGH	not failed
MTAVFRNTVLVRFKHCDAAGIVFYPRYFEMLNDFIEDWFAQALDWPFDAMHGAGQAGVPTADLHCRFVAPSRLGETLTRELRVVKLGQSSFTVQVRFMGPDSGLRLEVTQRLVCVDTDKIAPRPLPDPVRQAMATYVDETLAATGSPGL	not failed
MTAVGADAPKPGAPIKEPRFGFLRRTYAMLVKELIQLKRDRLTFAMIIVIPVMQLLLFGYAINTTPRHLPTAVLLQEDSDLGRSILKALENTAYFKFTREVHSVAEFDDLLLSGRVLFGVEIPRGFERAVRRGEKPAILVAADATDPVAAGSALSALGQIVQTALMHDRVGGDPANPPFEIRAHARYNPAASSRLNIVPGLVGTILTMTMLIFTALSVTREIERGTMENLLSMPITPVEVMLGKILPYVGVGFIQASLILGIGVLLFGVPLRGSLAMLALLSTLFITTNLAIGYTFSTLVQNQLQAMQASMMFFLPSILLSGFMFPFAGMPIWAQYIGECLPLTHYLRIVRAIMLKGSTLENLQYDAVALLTLMLIAMTIAVTRFRRTLD	failed
MTAVQLMELDSCTRCGECVKWCPTYAASGQKPGLAPRDKILRWRQYMNKSYGLKAKLFGPTEIPQSELEEFKDDVHGCTTCGICATVCESGINTVELWESLRTNLVKKGIGPFGKQGMFPKLEHHHHHH	failed
MTAVRRIRAAALPDLPDASWSNALLVGEELVMSGMTAHPATRQAAERGAALDAHAQALVVLGKVKALLEAAGGHVGNLYKLNVYVTRIADKDAIGRARQEFFAGQGTFPASTLVEVSGLVFPELLVEIDAWARLDIDLANCDEA	not failed
